T1: human ANGPTL3 17-220 (human)
T1 chain: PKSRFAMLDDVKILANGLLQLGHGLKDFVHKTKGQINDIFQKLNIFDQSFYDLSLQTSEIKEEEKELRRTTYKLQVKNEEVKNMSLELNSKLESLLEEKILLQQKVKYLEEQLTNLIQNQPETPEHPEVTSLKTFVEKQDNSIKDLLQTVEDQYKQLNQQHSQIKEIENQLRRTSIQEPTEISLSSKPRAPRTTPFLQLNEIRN


What was measured:
human ANGPTL3 17-220 [1] = target: T1, human ANGPTL3 17-220; assay: SPR, pH 7.4, 37C
human ANGPTL3 17-220 [2] = target: T1, human ANGPTL3 17-220; assay: SPR, pH 6.0, 37C
human ANGPTL3 17-220 [3] = target: T1, human ANGPTL3 17-220; assay: SPR, pH 6.0, 37C

Row | Binder | Kd (human ANGPTL3 17-220 [1]) [nM] | binding result (human ANGPTL3 17-220 [2]) | Kd (human ANGPTL3 17-220 [3]) [nM]
1 | tmAb2 (antibody, V domains shown) VH: EVQLLESGGGLVQPGGSLRLSCAASDFNFRSYWMTWVRQAPGKGLEWVSSISSHSTYIYYADSVKGRFTISRDNSKNTLYLQMNSLRAEDTATYYCAREGWYDNWFDPWGQGTLVTVSS VL: EIVLTQSPGTLSLSPGERATLSCRASQNIRSPYLAWYQQKPGQAPRLLIYGVSSRAAGIPDRFSGSGSGTDFTLTISRLEPEDFAVYYCQQYDDHPYTFGQGTKLEIK | 43 | no binding | –
2 | tmAb3 (antibody, V domains shown) VH: EVQLLESGGGLVQPGGSLRLSCAASGFNFESYWMTWVRQAPGKGLEWVSSISSHSTYIYYADSVKGRFTISRDNSKNTLYLQMNSLRAEDTATYYCAREGWYDNWFDPWGQGTLVTVSS VL: EIVLTQSPGTLSLSPGERATLSCRASQNIRSPYLAWYQQKPGQAPRLLIYGVSSRAAGIPDRFSGSGSGTDFTLTISRLEPEDFAVYYCQQYDDHPYTFGQGTKLEIK | 18 | – | 3000
3 | tmAb1 (antibody, V domains shown) VH: EVQLLESGGGLVQPGGSLRLSCAASGFNFRSYWMTWVRQAPGKGLEWVSSISSHSTYIYYADSVKGRFTISRDNSKNTLYLQMNSLRAEDTATYYCAREGWYDNWFDPWGQGTLVTVSS VL: EIVLTQSPGTLSLSPGERATLSCRASQNIRSPYLAWYQQKPGQAPRLLIYGVSSRAAGIPDRFSGSGSGTDFTLTISRLEPEDFAVYYCQQYDDHPYTFGQGTKLEIK | 21 | – | 2000
4 | tmAb4 (antibody, V domains shown) VH: EVQLLESGGGLVQPGGSLRLSCAASGFNFESYWMTWVRQAPGKGLEWVSSISSHSTYIYYADSVKGRFTISRDNSKNTLYLQMNSLRAEDTATYYCAREGWYDNWNDPWGQGTLVTVSS VL: EIVLTQSPGTLSLSPGERATLSCRASQNIRSPYLAWYQQKPGQAPRLLIYGVSSRAAGIPDRFSGSGSGTDFTLTISRLEPEDFAVYYCQQYDDHPYTFGQGTKLEIK | 56 | no binding | –

— patent US11780910 (dated 2023)
